Measured values published in patent US20190382483A1 (published 2019).

Target: T1, Recombinant hSIRPg-His (Sino Biologicals, reference 11828-H08H) (human, UniProt Q9P1W8 29-360)
T1 chain: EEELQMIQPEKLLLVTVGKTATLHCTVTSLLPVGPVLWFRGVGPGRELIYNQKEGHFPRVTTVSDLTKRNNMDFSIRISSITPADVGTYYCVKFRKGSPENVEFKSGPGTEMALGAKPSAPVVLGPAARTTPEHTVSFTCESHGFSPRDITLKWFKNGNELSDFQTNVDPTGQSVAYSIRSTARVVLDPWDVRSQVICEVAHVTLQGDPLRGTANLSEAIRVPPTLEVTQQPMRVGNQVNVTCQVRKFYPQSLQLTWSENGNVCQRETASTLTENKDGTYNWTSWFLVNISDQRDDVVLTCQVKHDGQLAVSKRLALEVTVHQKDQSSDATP
Assay: Blitz (BLI)

B1: SIRP29 (antibody, V domains shown)
VH: EVQLQQSGAELVKPGASVKLSCTASGFNIKDYYIHWVQQRTEQGLEWIGRIDPEDGETKYAPKFQDKATITADTSSNTAYLHLSSLTSEDTAVYYCARWGAYWGQGTLVTVSS
VL: QIVLTQSPAIMSASPGEKVTLTCSASSSVSSSYLYWYQQKPGSSPKLWIYSTSNLASGVPARFSGSGSGTSYSLTISSMEAEDAASYFCHQWSSYPRTFGAGTKLELK
Kd: 5.3 nM

B2: Kwar23 (antibody, V domains shown)
VH: EVQLQQSGAELVKPGASVKLSCTASGFNIKDYYIHWVQQRTEQGLEWIGRIDPEDGETKYAPKFQDKATITADTSSNTAYLHLSSLTSEDTAVYYCARWGAYWGQGTLVTVSS
VL: QIVLTQSPAIMSASPGEKVTLTCSASSSVSSSYLYWYQQKPGSSPKLWIYSTSNLASGVPARFSGSGSGTSYSLTISSMEAEDAASYFCHQWSSYPRTFGAGTKLELK
Kd: 2.14 nM
